Assay results reported in a protein production outcome set (Wang et al. 2014).

Test: label from the status in PepcDB records

Sequence | protein production
TSTDAAGGDSYRVGINQLVQHPALDAATTGFKEAFEEAGVDVTFDEQNANGEQGTALTISQQFASDNLDLVLAVATPAAQATAQNITDIPVLFTAVTDAVSAELVDSNEAPGGNVTGTSDIAPIEQQLELLQQLVPDAKSIGIVYASGEVNSQVQVDEVTKAAEPLGLSVNTQTVTTVNEIQQAVEALGDVDVIYVPTDNMVVSGISSLVQVAEQKQIPVIGAESGTVEGGALATLGIDYTELGRQTGEMALRILQDGEDPATMPVETATEFTYVINEDAAERQGVEIPQEILDKAERV | failed
MIFMNMVNRERELQALKKRLSSNDLELIIIYGRRRIGKTFLIINAVNGYDFIYYLATEKNNLRKFKELTESKYEDIKYVKEDWEAIFHYLRDKIIIIDEFPYMIKEDESILSTFQKIVDETLKGSKTKLILLGSSISMMEDAISYKSPLYGRRTASIELKELKFKDLKGFNFSLIDAIHVYGFAGGVPFYLTKAKTPFLKWINAELKEVDSFIKDEIDFMLRYEFSEIGTYKEILHAISSGKNTLGEIKDFVRISGDVSSYLNKLEKIGIIGKEFPYKMKKGARYYIKDNFTLFWFTFIYPNLSLIEEGIYEIKEDEYNVYLGRIFEKIAREYVEDVYKVKVERLWFKDVEIDIYGDGIAGECKWSEGINGEKVLYELKRKVEDLGLDVKKYIIFAKSFSKTNEEAEFIDLKKLEQWYRTLEHHHHHH | not failed
MSMLANFDFASFFAVAAAIVIGLYVVLDGFDLGVGILFPFAPRVSDRDAMMATLEPFWDGNETWLVLGGMVLLGAFPLAFAILLPAFYVPLCLMLFGLVIRGVAFEFRSQGGRFQIVWSATFAAGSFIAAFCQGAVLGAFVGRSITVSDGAFAGGPFDWLGLFSIATGLGVVAAYGLLGACWLVWKTSGSTQNFGRELMLPTLLCAGAAIVLISVWTPFAKPQIAERWFAWPDALLLAPLPIIAVLAGIGILLTRWSEREWAPLALSLLLFVTSLAGLGASVWPEAIPGVMTIWQASSMHRTQVIVAGAVVIIGPIILAYIGYGYWLFRGKTKPVPEFPPR | failed
MERRLAAILIADVVGYSRLSQIDEEGTRARFQADQNDVFEPAIERHHGRLVKTMGDGLLVEFQSVVDALRCAVEVQQLKATQSAASLPEHRLEFRIGINLGDIIVEGEDIQGDGVNIADRIQALAEPGGIAISGTTYDQVKSKIPVGFASLGEQRLKSITEPIRVYRILLDPTAAGKTLKTRRRLPRRRLVAGIAAAIVVLALAGAALWWQPWMPAKPPGPGERFAYPLPDRPSVAVLPFINVSGDSEHDHLAEGLTDDLITELSKVSGLFVIARHSVFAIQGSVGKIQDVATELGVQYVLEGTLQRAGPRLRINVKLIDAVSGLSLWAERYDRQYADLFAVQDDVIGKIISALSVKLSARERDQLARIPTENLEAYDFYMRAEQEGFILRDVDTYRRTLSFYQKAIDLDPGFANAHAGIARVAVDVWRNDYNYLWSAAVARKIAYDAAGQALKLDPNNARAHTVLALLQWVDGRETEAKNSANMAVAMEPNDAEAAANLALILVHTGSSGQAITEMEKALRLDPSPASSFQLLAGIVFYTAGDDQRAISLIEPTLDSLPKVEPAREYLAAAYADQGNETKAAAETAKLLELFPEGNLTYYGYLYDYWRDGDLQRHLAALRKAGIPEWPFGFTGSQADRLGEADLRNLVDGKSWTGKHKNGTDFTQYFDRAGNTAYRSANTNITGIVEVRGDSLCEKFEGYFLDRMVCGYVYRNTSGEQRDRPYVHVTPRALTFFSPTP | failed
DARKGNASAPVVAVEFFDYQCGYCKGALPELAAALSGRNDVAVVMKEFPILGSTSEAAARLALAVRAEHGDEAYLGFHNALLSHKGGLNEAALSILAGAAGYDYPALVARGRQDDITSIIDGNRRLAQALSISGTPAFVFRDGEVVPGMMAADRLTAAFDRLSASTAAAQ | failed
MKKTLLAIVAVSALSACRQAEEGPPPLPRQISDRSVGHYCSMNLTEHNGPKAQIFLNGKPDQPVWFSTIKQMFGYTKLPEEPKGIRVIYVTDMGNVTDWTNPNADTEWMDAKKAFYVIDSGFIGGMGAEDALPFGNKEQAEKFAKDKGGKVVGFDDMPDTYIFK | failed
MPFNQNVSLECYNGILSMLLNGAPLADILHALVLKIEDQRLGTHASVLLLSEDGKRVLTGAAPHLPDSYNQVIHGVEIGPEVGSCGTAAYTGQRVIVEDIEHHPYWALYKSFALVHGLRACWSEPIKDTQGKVLGTFAMYYKEIKSPTVADLTLIAEAARLASLAIERSRSLEFQRLEHHHHHH | not failed
MQYIFSIISGIIVGFSLGLIGGGGSILAIPLLIYFVGIKNPHLVIGTTALAVGINALINVYSHLRKKNVSLRTGAIFTVFGILGVLLGTTLGLITPGGKLLFLFSFLMIVIGAYMFITKCKTCKNYDAIPKKNNNDDPPDPPKKGLWQKIKLEVFGVLAGFASGYFGIGGGFLIVPALLYSADITMNLAVGTSLMSVGTFGLVTALRYGIAGKVLVTIALLYVLGGIFGGYAGAKLSSSMKRSTLRRFFSLIIIVVGIYMAIESFSAVF | failed
MKKILAICGIELSLIFKKPQNYLIMFAAPLLLTFVFGSMLSGNDDKVRLAIVDQDDTILSQHYIRQLKAHDDMYVFENMSESKASEKLKQKKIAGIIVISRSFQTQLEKGKHPELIFRHGPELSEAPMVKQYAESALATLNIQVTAAKTASQTAGENWKAAYKTVFAKKHEDIVPAVTRQTLSDKKEGAEASDTASRAAGFSILFVMLTMMGAAGTILEARKNGVWSRLLTASVSRAEIGAGYVLSFFVIGWIQFGILLLSTHWLFGINWGNPAAVIVLVSLFLLTVVGIGLMIAANVRTPEQQLAFGNLFVIATCMVSGMYWPIDIEPKFMQSIAEFLPQKWAMSGLTEIIANGARVTDILGICGILLAFAAITFAAGLKALRA | failed
MNKGFILKALFLLCFLFSQTAQGQSFTPGEIWPDNHQVHINAHGGGILYENGTYYWFGEHKTEGEAGNLANVGVHCYSSDDLYHWKDCGIALSVIENDPGHPISKGCILERPKVIYNPLTKKYVMWFHLEPKGAGYSGALSGIALSDRVTGPYTFLKAVRPNAGSWPINVLPIHKTTRRPSAEEERQCTGGSLPAHPDSLNILGRDMEQGQMARDMNLFVDDDGKAYHIYSSEENSTLHIAELDPTYTGYTGKYIRVFINRFMEAPAMFKKDGNYYLIMSGCSGWNPNAARSAIASSIWGEWKELGNPCIGQDADLTFHSQSTYILPVQGKKNQFIYMGDRWTPQNAIDGRYIWLPIHFEGPKPIIEWKDSWTLD | failed
MTISNFVNYIRSPPVNGFVCCTRGSSIAVCNPTTRQIVKLPDVVTNENYMHVRLGYDPVEDQYKVLLVVMMFDGYRTDTDQEYFVFTLSSQQKEWRKIENTTGETYHMVYGGICIDGAIYYGVSQSIIVKFDVRSEKMEFIQAHEVSHIAPPYYSTLLYLSSDMIRMENHSNEEVRFWILEDAEKLRVSHMACDVWDDSLGKYVRAKEEIHTGKLMGIYPRLQSSKYKPFSVCVYHFNKVGLKKTEIQGSNDDDIRFRCGIGMRTHEILILEVTLRILGSCEEFSWFH | not failed
ETDKTAISVREIADNTYIVLGTMTLNDFNEYFETDLESDNVDTIAGFYLTGVGTIPSQEEKEHFEVESNGKHLELINDKVKDGRVTKLKILVSE | failed
MARTIENMAKPASDMPPYDKAAALRGLAGARRVALLMAPRLGDTLLMMNMARNLAAHGREVSIFGDYIHGLRDWFPGLDIRPSLSEEQAGQVLPGYDCAAQMHVGWPYALHAHQPNYFYYDAHVAITGRGFVKLFQIRDFCREQLGLAQAGADNGLRPPPQVQPHRSHPRRVALHPTSTGAQRCWAPRHFKELGLRLLHEGYEPNYIVAPHERAEWSWVLDHGLHLPQFPSLSEVAGFIHASGWFIGNESGIGHLASNVGVPTLSLTGRPTRTRAWRPAWSTSRIVYPALIPGGRWRDRLWREWLSPRRVMSAFHKLQADDRRQPVGVPWGKI | failed
MNTIKLKKNALFNPEGDTDLRHRRMIGGNTTNLNDFNNMRYKWVSDWYRQAMNNFWIPEEINLTQDTKDYPHLDQAERTAYDKILSFLVFLDSLQSNNLPTISEYITANEVNLCLHIQAFQECVHSQSYSYMLDSICSPEKRNEILYQWKTDGHLLKRNTFIGNCYNEFQESQDGFTLMKTLIANYILEGIYFYSGFMFFYNLSRNGKMSGSAQEIRYINRDENTHLWLFRNIILELKKEEPDLFTPDKVKIYEYMMREGVKQEIEWGQYVIGDNIQGLNRKMIEDYIQYLGNLRWSSLGFGPLYEENHKEPESMHWVSQYSNANMVKTDFFEAKSTAYAKSTALEDDL | failed
KYTQNNFITGVRAINEFCLKSSDLEQLRKIRRRSPHEDTESFTVYLRSDVEAKSLEVWGSPEALAREKKLRKEAEIEYRERLFRNQKILREYRD | not failed
